Experimental data: patent publication US6391608

Test system: PleI restriction endonuclease (Pseudomonas lemoignei)
Assay: cleavage_in_vitro
Conditions: approximate yield of recombinant PleI; five of six clones active; recognition site not given

## DNA substrate with PleI sites (sequence not stated)
  activity (units/gram of cells): 100000
